Source: publication PMC5156300 (mBio, 2016)

B1: αNP-VHH1-HA (VHH)
VHH: QVQLQESGGGLVQAGGSLRLTCALSERTSTSYAQGWFRQPPGKEREFVASLRTHDGNTHYTDSVKGRFTISRDNAENTLYLQMNSLKTEDTAVYYCAASLGYSGAYASGYDYWGQGTQVTVSS
notes: also called anti-NP-VHH1-HA; HA-tagged anti-NP-VHH1; source: 293T, transfected (pCAGGS), in lysate
B2: αNP-VHH1-Alexa Fluor 647 (VHH)
VHH: B1 VHH

Assays:
[1] = molecular target: NP-Renilla wild type (NP of influenza virus A/WSN/33) (Influenza A virus A/WSN/33, UniProt P15682); assay: LUMIER; conditions: partners not purified
[2] = molecular target: NP of influenza virus A/PR/8/34 in infected A549 cells (Influenza A virus A/PR/8/34, UniProt P03466); assay: flow cytometry on cells; conditions: one partner purified
[3] = molecular target: NP of influenza virus A/WSN/33 in infected A549 cells (Influenza A virus A/WSN/33, UniProt P15682); assay: flow cytometry on cells; conditions: one partner purified
Sequence of NP of influenza virus A/WSN/33 in infected A549 cells (P15682 whole entry): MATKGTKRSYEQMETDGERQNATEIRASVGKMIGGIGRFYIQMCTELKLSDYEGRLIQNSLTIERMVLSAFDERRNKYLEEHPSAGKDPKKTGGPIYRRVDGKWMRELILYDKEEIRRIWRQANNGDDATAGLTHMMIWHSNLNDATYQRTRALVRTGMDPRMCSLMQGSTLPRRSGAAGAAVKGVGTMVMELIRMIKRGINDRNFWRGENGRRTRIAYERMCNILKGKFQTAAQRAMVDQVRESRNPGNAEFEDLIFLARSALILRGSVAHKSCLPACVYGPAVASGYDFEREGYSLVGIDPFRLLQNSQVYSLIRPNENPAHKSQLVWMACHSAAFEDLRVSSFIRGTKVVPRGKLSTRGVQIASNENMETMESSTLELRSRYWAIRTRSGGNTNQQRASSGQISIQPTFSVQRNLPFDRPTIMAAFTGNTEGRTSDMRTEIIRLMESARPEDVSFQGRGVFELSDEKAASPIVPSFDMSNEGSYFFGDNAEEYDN

Sequence of NP-Renilla wild type (NP of influenza virus A/WSN/33) (P15682 whole entry): as above
Sequence of NP of influenza virus A/PR/8/34 in infected A549 cells (P03466 whole entry): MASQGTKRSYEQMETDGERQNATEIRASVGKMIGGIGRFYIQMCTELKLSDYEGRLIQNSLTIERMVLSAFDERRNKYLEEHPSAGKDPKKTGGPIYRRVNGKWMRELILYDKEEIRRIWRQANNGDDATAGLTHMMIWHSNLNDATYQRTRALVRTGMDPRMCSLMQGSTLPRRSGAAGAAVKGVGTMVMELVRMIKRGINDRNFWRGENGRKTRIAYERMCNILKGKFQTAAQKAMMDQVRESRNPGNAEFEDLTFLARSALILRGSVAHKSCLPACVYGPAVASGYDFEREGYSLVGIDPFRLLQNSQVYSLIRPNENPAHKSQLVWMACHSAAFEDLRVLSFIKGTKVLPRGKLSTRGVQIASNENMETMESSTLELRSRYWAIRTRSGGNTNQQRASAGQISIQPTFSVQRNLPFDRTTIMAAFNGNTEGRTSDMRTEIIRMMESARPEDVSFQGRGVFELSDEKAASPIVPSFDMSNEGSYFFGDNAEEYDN

Binder	binding result [1]	binding result [2]	binding result [3]
B1	binds	–	–
B2	–	binds	binds
